In patent publication US20240376185A1 (SMIVET B V, published 2024):

Assays:
[1] = target: T1, tetanus neurotoxin (TeNT), authentic tetanus holotoxin (Clostridium tetani, UniProt P04958 2-1315); assay: GT1b-TeNT inhibition ELISA, EC at A450 0.59
[2] = target: T1, tetanus neurotoxin (TeNT), authentic …; assay: competition ELISA on TeNT, binder biotinylated; competitor SVT16L
[3] = target: T1, tetanus neurotoxin (TeNT), authentic …; assay: competition ELISA on TeNT, binder biotinylated; competitor mAb 11n185
[4] = target: T1, tetanus neurotoxin (TeNT), authentic …; assay: competition ELISA on TeNT, binder biotinylated; competitor SVT15L
[5] = target: T1, tetanus neurotoxin (TeNT), authentic …; assay: competition ELISA on TeNT, binder biotinylated; competitor SVT03L
[6] = target: T1, tetanus neurotoxin (TeNT), authentic …; assay: GT1b-TeNT inhibition ELISA, unlabelled binder
[7] = target: T1, tetanus neurotoxin (TeNT), authentic …; assay: competition ELISA on TeNT, binder biotinylated; competitor SVT34L
[8] = target: T1, tetanus neurotoxin (TeNT), authentic …; assay: competition ELISA on TeNT, binder biotinylated; competitor SVT22L
[9] = target: T1, tetanus neurotoxin (TeNT), authentic …; assay: competition ELISA on TeNT, binder biotinylated; competitor SVT06L
[10] = target: T1, tetanus neurotoxin (TeNT), authentic …; assay: competition ELISA on TeNT, binder biotinylated; competitor mAb 6E7
[11] = target: T1, tetanus neurotoxin (TeNT), authentic …; assay: competition ELISA on TeNT, binder biotinylated; competitor mAb 6F57
[12] = target: T1, tetanus neurotoxin (TeNT), authentic …; assay: competition ELISA on TeNT, binder biotinylated; competitor SVT15L-3FW4M
[13] = target: T1, tetanus neurotoxin (TeNT), authentic …; assay: competition ELISA on TeNT, binder biotinylated; competitor SVT02L
[14] = target: T1, tetanus neurotoxin (TeNT), authentic …; assay: ELISA, TeNT captured with cAb-TT2, biotinylated binder
[15] = target: T1, tetanus neurotoxin (TeNT), authentic …; assay: ELISA, TeNT captured with cAb-TT2, unlabelled binder
[16] = target: T1, tetanus neurotoxin (TeNT), authentic …; assay: ELISA, directly coated TeNT, unlabelled binder
[17] = target: T1, tetanus neurotoxin (TeNT), authentic …; assay: competition ELISA on TeNT, binder biotinylated; competitor SVT13L
[18] = target: T1, tetanus neurotoxin (TeNT), authentic …; assay: competition ELISA on TeNT, binder biotinylated; competitor SVT08L
[19] = target: T1, tetanus neurotoxin (TeNT), authentic …; assay: ELISA, directly coated TeNT, biotinylated binder
[20] = target: T1, tetanus neurotoxin (TeNT), authentic …; assay: competition ELISA on TeNT, binder biotinylated; competitor mAb 14F5
[21] = target: T2, recombinant tetanus toxin fragment C (rTTC) (Clostridium tetani, UniProt P04958 865-1315); assay: ELISA, directly coated rTTC, unlabelled binder
T2 sequence: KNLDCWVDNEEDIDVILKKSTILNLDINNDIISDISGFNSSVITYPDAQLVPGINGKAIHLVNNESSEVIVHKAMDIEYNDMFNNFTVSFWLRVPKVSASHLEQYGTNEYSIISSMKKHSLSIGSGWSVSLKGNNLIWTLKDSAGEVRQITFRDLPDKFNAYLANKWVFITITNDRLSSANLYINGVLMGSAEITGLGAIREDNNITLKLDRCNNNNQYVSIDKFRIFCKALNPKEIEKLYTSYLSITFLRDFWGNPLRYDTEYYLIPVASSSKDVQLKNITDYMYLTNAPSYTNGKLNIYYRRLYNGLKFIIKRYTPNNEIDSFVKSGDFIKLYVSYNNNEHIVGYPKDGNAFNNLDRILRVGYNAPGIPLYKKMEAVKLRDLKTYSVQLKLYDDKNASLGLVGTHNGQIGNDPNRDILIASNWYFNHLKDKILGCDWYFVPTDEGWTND

[22] = target: dog IgG (chrompure dog IgG) (dog)

T1 sequence (P04958 2-457 limits assumed, chain 1 of 2): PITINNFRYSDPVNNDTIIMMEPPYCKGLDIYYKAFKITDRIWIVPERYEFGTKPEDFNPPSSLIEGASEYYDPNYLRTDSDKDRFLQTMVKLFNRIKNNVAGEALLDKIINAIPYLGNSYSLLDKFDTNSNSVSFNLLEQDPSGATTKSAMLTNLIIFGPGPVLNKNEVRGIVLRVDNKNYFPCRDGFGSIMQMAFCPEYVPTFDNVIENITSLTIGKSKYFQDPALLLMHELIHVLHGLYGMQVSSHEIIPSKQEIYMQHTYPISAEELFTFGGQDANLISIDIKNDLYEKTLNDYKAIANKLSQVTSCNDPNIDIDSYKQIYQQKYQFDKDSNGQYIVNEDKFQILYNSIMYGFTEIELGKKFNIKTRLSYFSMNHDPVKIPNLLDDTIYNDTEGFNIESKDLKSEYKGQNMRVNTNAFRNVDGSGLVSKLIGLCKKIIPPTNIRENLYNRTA
T1 sequence (P04958 458-1315 limits assumed, chain 2 of 2): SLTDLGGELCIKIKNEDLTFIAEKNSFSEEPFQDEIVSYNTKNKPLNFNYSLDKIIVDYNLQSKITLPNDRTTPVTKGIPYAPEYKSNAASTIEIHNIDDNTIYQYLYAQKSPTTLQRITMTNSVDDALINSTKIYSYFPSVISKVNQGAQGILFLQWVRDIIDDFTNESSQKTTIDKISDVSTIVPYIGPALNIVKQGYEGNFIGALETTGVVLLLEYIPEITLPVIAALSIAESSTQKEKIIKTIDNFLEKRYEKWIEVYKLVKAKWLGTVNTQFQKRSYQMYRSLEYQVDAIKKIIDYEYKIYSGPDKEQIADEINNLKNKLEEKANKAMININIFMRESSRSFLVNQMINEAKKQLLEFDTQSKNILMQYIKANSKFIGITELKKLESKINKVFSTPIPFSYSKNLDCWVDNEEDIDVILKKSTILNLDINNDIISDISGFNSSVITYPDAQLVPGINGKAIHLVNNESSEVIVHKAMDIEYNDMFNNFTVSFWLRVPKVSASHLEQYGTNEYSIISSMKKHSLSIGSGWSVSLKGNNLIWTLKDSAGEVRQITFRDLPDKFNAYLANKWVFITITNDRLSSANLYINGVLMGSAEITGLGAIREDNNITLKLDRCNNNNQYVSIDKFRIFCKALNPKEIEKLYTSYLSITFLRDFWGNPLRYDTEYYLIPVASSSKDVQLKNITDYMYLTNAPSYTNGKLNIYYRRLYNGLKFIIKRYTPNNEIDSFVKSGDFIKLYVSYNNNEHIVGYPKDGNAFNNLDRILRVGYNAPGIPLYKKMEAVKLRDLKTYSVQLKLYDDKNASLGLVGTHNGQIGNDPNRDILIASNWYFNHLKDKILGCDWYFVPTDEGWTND

B1: SVT13L (VHH)
VHH: QVQLQESGGGLVQAGGSLRLSCAVSGTNFDDYAIGWFRQAPGKRREAVACISKTDGVTRYGNGVKGRFTISSDEARNTVFLQMNDLKDEDTAIYYCIGDFKSCGMGYKPIDHWGRGIQVTVSS
concentration giving A450 of 0.59 [1]: 0.082 µg/mL | % inhibition of binding [2]: 91% | % inhibition of binding [3]: 2% | % inhibition of binding [4]: -19% | % inhibition of binding [5]: 1% | minimal absorbance at 450 nm [6]: 0.126 | % inhibition of binding [7]: 91% | % inhibition of binding [8]: 92% | % inhibition of binding [9]: 1% | % inhibition of binding [10]: 2% | % inhibition of binding [11]: 0% | % inhibition of binding [12]: 8% | % inhibition of binding [13]: 7% | EC resulting in A450 0.2 [14]: 1.3 ng/mL | maximal absorbance at 450 nm [14]: 1.06 | EC resulting in A450 0.15 [15]: 4.1 ng/mL | maximal absorbance at 450 nm [15]: 0.487 | EC resulting in A450 0.2 [16]: 1.9 ng/mL | maximal absorbance at 450 nm [16]: 1.54 | % inhibition of binding [17]: 95% | % inhibition of binding [18]: 13% | EC resulting in A450 0.4 [19]: 0.57 ng/mL | maximal absorbance at 450 nm [19]: 1.48 | % inhibition of binding [20]: 5% | maximal absorbance at 450 nm [21]: 1.1

B2: SVT02-GS2-SVG06M4-H6 (bispecific antibody)
chain: QVQLQQSGGGSVQAGGSLRLSCVGPQRTFSTYGMGWFRQAPGKEREFVAGINYKGDTTYYADSVKGRFTISRDNAKNTLYLQMDSLKPEDRAVYQCARKGGLGGDYRDAGQYRYWGQGTQVTVSSGGGGSGGGSEVQLVESGGALVQPGGSLRLSCAASGFPFSAYDMTWVRQAPGQGLEWVSTIHKSGGITTYADSVKGRFTISRDNAKNTLYLQMNNLESEDTAVYYCAKALRAHNSDYVGRNALGSWGQGTQVTVSSHHHHHH
maximal absorbance value [22]: 0.06 A450

B3: SVT22L (VHH)
VHH: QVQLQESGGGLVQAGESLRLSCTASGISFDDYAIGWFRQAPGQQRKGVACISKADGRTDYLGSVKGRFTLSTDNTKNTVHLQMNNLKPEDTALYTCAAEYKSCGMGYKPIDYWGQGMQVTVSS
concentration giving A450 of 0.59 [1]: 0.105 µg/mL | % inhibition of binding [2]: 92% | % inhibition of binding [3]: 3% | % inhibition of binding [4]: 2% | % inhibition of binding [5]: 5% | minimal absorbance at 450 nm [6]: 0.107 | % inhibition of binding [7]: 93% | % inhibition of binding [8]: 94% | % inhibition of binding [9]: 6% | % inhibition of binding [10]: 8% | % inhibition of binding [11]: 10% | % inhibition of binding [12]: 11% | % inhibition of binding [13]: 4% | EC resulting in A450 0.2 [14]: 2.6 ng/mL | maximal absorbance at 450 nm [14]: 0.799 | EC resulting in A450 0.15 [15]: 5.4 ng/mL | maximal absorbance at 450 nm [15]: 0.318 | EC resulting in A450 0.2 [16]: 2 ng/mL | maximal absorbance at 450 nm [16]: 1.59 | % inhibition of binding [17]: 95% | % inhibition of binding [18]: 1% | EC resulting in A450 0.4 [19]: 1.3 ng/mL | maximal absorbance at 450 nm [19]: 1.34 | % inhibition of binding [20]: 0% | maximal absorbance at 450 nm [21]: 0.981

B4: SVT34L (VHH)
VHH: QVQLQESGGGLVQPGGSLRLSCAASGRTISSYAMGWFRQAPGKQREFVAAISRSGGNTYYTDSVKGRFIISRDNAKNTLYLQMNNLKPEETAVYYCAADPNLMYESKWKYRALEAWGQGTLVTVSS
concentration giving A450 of 0.59 [1]: 0.046 µg/mL | % inhibition of binding [2]: 93% | % inhibition of binding [3]: 2% | % inhibition of binding [4]: 3% | % inhibition of binding [5]: 0% | minimal absorbance at 450 nm [6]: 0.103 | % inhibition of binding [7]: 95% | % inhibition of binding [8]: 94% | % inhibition of binding [9]: -2% | % inhibition of binding [10]: 10% | % inhibition of binding [11]: 13% | % inhibition of binding [12]: 14% | % inhibition of binding [13]: 2% | EC resulting in A450 0.2 [14]: 3.5 ng/mL | maximal absorbance at 450 nm [14]: 0.669 | EC resulting in A450 0.15 [15]: 3.2 ng/mL | maximal absorbance at 450 nm [15]: 0.335 | EC resulting in A450 0.2 [16]: 1 ng/mL | maximal absorbance at 450 nm [16]: 1.54 | % inhibition of binding [17]: 93% | % inhibition of binding [18]: -4% | EC resulting in A450 0.4 [19]: 1.7 ng/mL | maximal absorbance at 450 nm [19]: 1.29 | % inhibition of binding [20]: 4% | maximal absorbance at 450 nm [21]: 0.886
